Laboratory results taken from paper PMC5635807, “Identification of Trombospondin-1 as a Novel Amelogenin Interactor by Functional Proteomics” (Frontiers in Chemistry, 2017).

Target: T1, Thrombospondin-1 (Abnova) (UniProt P07996 19-1170)
T1 construct: Thrombospondin-1 bought from Abnova; No catalogue number is printed; the product may be a partial or tagged recombinant protein; also called TSP-1; free TSP-1; source: bought: Abnova
Experiment: SPR; Biacore 3000; AMEL-2 immobilised on a CM5 chip by amine coupling (10,000 RU); running buffer 10 mM Na2HPO4, 150 mM NaCl, pH 7.4; analytes injected at 10 μl/min for 3 min, dissociation 600 s, no regeneration; 1:1 Langmuir model
Settings: both partners purified

T1 sequence (P07996 19-1170): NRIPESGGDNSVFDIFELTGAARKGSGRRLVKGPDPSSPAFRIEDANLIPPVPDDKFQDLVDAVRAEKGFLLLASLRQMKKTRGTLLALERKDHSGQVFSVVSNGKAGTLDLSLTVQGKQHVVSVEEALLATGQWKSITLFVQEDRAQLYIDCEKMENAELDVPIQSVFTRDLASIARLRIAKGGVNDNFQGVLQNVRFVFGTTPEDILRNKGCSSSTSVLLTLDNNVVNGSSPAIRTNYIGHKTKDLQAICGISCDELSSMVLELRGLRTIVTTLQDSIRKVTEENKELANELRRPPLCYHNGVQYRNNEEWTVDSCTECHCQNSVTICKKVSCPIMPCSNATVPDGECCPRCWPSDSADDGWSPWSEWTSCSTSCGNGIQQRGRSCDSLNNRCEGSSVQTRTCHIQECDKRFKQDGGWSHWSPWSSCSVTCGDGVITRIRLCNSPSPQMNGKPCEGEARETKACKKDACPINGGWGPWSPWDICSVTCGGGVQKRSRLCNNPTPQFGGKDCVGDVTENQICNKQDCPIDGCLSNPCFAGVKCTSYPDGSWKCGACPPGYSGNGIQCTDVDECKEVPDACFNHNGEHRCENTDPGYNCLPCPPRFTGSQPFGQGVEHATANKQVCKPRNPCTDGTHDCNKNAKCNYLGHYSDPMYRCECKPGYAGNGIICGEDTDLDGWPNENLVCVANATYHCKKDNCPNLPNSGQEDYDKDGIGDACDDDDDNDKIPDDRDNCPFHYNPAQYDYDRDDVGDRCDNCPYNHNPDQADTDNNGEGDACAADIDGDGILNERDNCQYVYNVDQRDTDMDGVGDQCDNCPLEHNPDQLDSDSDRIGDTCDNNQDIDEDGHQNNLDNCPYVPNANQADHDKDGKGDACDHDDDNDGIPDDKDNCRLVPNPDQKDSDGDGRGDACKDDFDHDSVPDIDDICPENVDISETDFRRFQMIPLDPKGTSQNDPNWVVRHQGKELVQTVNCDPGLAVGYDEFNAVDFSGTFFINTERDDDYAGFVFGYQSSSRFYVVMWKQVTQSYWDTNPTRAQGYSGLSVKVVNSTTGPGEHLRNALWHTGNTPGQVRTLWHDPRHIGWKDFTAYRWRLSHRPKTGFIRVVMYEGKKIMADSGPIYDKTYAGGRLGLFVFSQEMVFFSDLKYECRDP

Kd: 878 ± 125 nM
B1: human amelogenin isoform 2 (AMELX isoform II), recombinant (natural protein)
chain: MGTWILFACLLGAAFAMPVLTPLKWYQSIRPPYPSYGYEPMGGWLHHQIIPVLSQQHPPTHTLQPHHHIPVVPAQQPVIPQQPMMPVPGQHSMTPIQHHQPNLPPPAQQPYQPQPVQPQPHQPMQPQPPVHPMQPLPPQPPLPPMFPMQPLPPMLPDLTLEAWPSTDKTKREEVD
